Data as given in the supplement of paper PMC5998384.

What was measured:
HeLa Kyoto [1] = experiment: solubility change mitosis vs G1/S (difference of NP-40 vs SDS log2 ratios) (log2 ratio difference); higher = more soluble in mitosis
HeLa Kyoto [2] = experiment: melting temperature (median over replicates), in situ; higher = more thermally stable
HeLa Kyoto [3] = experiment: solubility in G1/S (NP-40 vs SDS abundance) (log2 ratio); higher = more soluble; details: cell cycle stage: G1/S
HeLa Kyoto [4] = experiment: thermal stability score vs G1/S (z-score of summed log2 fold changes over temperatures); higher = more thermally stable than in G1/S
[5] = cell cycle stage: early G1 (4.5 h after nocodazole release)
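For melting temperature (median over replicates), in situ in this document: HeLa Kyoto cells synchronized by double thymidine or nocodazole block, proteins quantified by TMT10plex mass spectrometry, three independent biological replicates.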
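For solubility change mitosis vs G1/S (difference of NP-40 vs SDS log2 ratios) in this document: synchronized HeLa Kyoto cells (double thymidine block for G1/S, nocodazole release for mitosis), protein amounts in NP-40 versus SDS lysates quantified by mass spectrometry, three biological replicates.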
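For solubility in G1/S (NP-40 vs SDS abundance) in this document: HeLa Kyoto cells arrested at G1/S by double thymidine block, proteins quantified by TMT10plex mass spectrometry in mild NP-40 versus SDS extracts, three biological replicates.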
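For thermal stability score vs G1/S (z-score of summed log2 fold changes over temperatures) in this document: synchronized HeLa Kyoto cells, proteins quantified by TMT10plex mass spectrometry, three biological replicates, mitosis taken 0.5 h after nocodazole release, G1/S directly after double thymidine block.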

Which results are given for “MQDGNFLLSALQPEAGVCSLALPSDLQLDRRGAEGPEAERLRAARVQEQVRARLLQLGQQPRHNGAAEPEPEAETARGTSRGQYHTLQAGFSSRSQGLSGDKTSGFRPIAKPAYSPASWSSRSAVDLSCSRRLSSAHNGGSAFGAAGYGGAQPTPPMPTRPVSFHERGGVGSRADYDTLSLRSLRLGPGGLDDRYSLVSEQLEPAATSTYRAFAYERQASSSSSRAGGLDWPEATEVSPSRTIRAPAVRTLQRFQSSHRSRGVGGAVPGAVLEPVARAPSVRSLSLSLADSGHLPDVHGFNSYGSHRTLQRLSSGFDDIDLPSAVKYLMASDPNLQVLGAAYIQHKCYSDAAAKKQARSLQAVPRLVKLFNHANQEVQRHATGAMRNLIYDNADNKLALVEENGIFELLRTLREQDDELRKNVTGILWNLSSSDHLKDRLARDTLEQLTDLVLSPLSGAGGPPLIQQNASEAEIFYNATGFLRNLSSASQATRQKMRECHGLVDALVTSINHALDAGKCEDKSVENAVCVLRNLSYRLYDEMPPSALQRLEGRGRRDLAGAPPGEVVGCFTPQSRRLRELPLAADALTFAEVSKDPKGLEWLWSPQIVGLYNRLLQRCELNRHTTEAAAGALQNITAGDRRWAGVLSRLALEQERILNPLLDRVRTADHHQLRSLTGLIRNLSRNARNKDEMSTKVVSHLIEKLPGSVGEKSPPAEVLVNIIAVLNNLVVASPIAARDLLYFDGLRKLIFIKKKRDSPDSEKSSRAASSLLANLWQYNKLHRDFRAKGYRKEDFLGP [PKP3]”?
solubility change mitosis (log2) (HeLa Kyoto [1]): 0.099; melting temperature (HeLa Kyoto [2]; cell cycle stage: G1/S): 50.1 °C; melting temperature (HeLa Kyoto [2]; cell cycle stage: mitosis): 48.3 °C; solubility in G1/S (log2) (HeLa Kyoto [3]): -0.223; thermal stability score (HeLa Kyoto [4]; [5]): -0.69; thermal stability score (HeLa Kyoto [4]; cell cycle stage: mitosis): -0.255

For “MQEKDASSQGFLPHFQHFATQAIHVGQDPEQWTSRAVVPPISLSTTFKQGAPGQHSGFEYSRSGNPTRNCLEKAVAALDGAKYCLAFASGLAATVTITHLLKAGDQIICMDDVYGGTNRYFRQVASEFGLKISFVDCSKIKLLEAAITPETKLVWIETPTNPTQKVIDIEGCAHIVHKHGDIILVVDNTFMSPYFQRPLALGADISMYSATKYMNGHSDVVMGLVSVNCESLHNRLRFLQNSLGAVPSPIDCYLCNRGLKTLHVRMEKHFKNGMAVAQFLESNPWVEKVIYPGLPSHPQHELVKRQCTGCTGMVTFYIKGTLQHAEIFLKNLKLFTLAESLGGFESLAELPAIMTHASVLKNDRDVLGISDTLIRLSVGLEDEEDLLEDLDQALKAAHPPSGSHS [CTH]”, which “solubility change mitosis (log2)” value (HeLa Kyoto [1]) is on record?
The value was -0.134.

And the melting temperature (HeLa Kyoto [2]; cell cycle stage: G1/S)?
The melting temperature was 59 °C.

What about the melting temperature (HeLa Kyoto [2]; cell cycle stage: mitosis) of the same sequence?
Its melting temperature is 58.5 °C.

And the “solubility in G1/S (log2)” value (HeLa Kyoto [3])?
Its value is 0.283.

And the thermal stability score (HeLa Kyoto [4]; [5])?
The thermal stability score was -1.76.

What about the thermal stability score (HeLa Kyoto [4]; cell cycle stage: mitosis) of the same sequence?
Its thermal stability score is -0.741.

How did the “solubility change mitosis (log2)” value (HeLa Kyoto [1]) turn out when “MQGPPRSLRAGLSLDDFIPGHLQSHIGSSSRGTRVPVIRNGGSNTLNFQFHDPAPRTVCNGGYTPRRDASQHPDPAWYQTWPGPGSKPSASTKIPASQHTQNWSATWTKDSKRRDKRWVKYEGIGPVDESGMPIAPRSSVDRPRDWYRRMFQQIHRKMPDLQLDWTFEEPPRDPRHLGAQQRPAHRPGPATSSSGRSWDHSEELPRSTFNYRPGAFSTVLQPSNQVLRRREKVDNVWTEESWNQFLQELETGQRPKKPLVDDPGEKPSQPIEVLLERELAELSAELDKDLRAIETRLPSPKSSPAPRRAPEQRPPAGPASAWSSSYPHAPYLGSARSLSPHKMADGGSPFLGRRDFVYPSSTRDPSASNGGGSPARREEKKRKAARLKFDFQAQSPKELTLQKGDIVYIHKEVDKNWLEGEHHGRLGIFPANYVEVLPADEIPKPIKPPTYQVLEYGEAVAQYTFKGDLEVELSFRKGEHICLIRKVNENWYEGRITGTGRQGIFPASYVQVSREPRLRLCDDGPQLPTSPRLTAAARSARHPSSPSALRSPADPIDLGGQTSPRRTGFSFPTQEPRPQTQNLGTPGPALSHSRGPSHPLDLGTSSPNTSQIHWTPYRAMYQYRPQNEDELELREGDRVDVMQQCDDGWFVGVSRRTQKFGTFPGNYVAPV [SORBS3]” was run?
The value was -0.0255.

And the melting temperature (HeLa Kyoto [2]; cell cycle stage: G1/S)?
The melting temperature was 51.2 °C.

And the melting temperature (HeLa Kyoto [2]; cell cycle stage: mitosis)?
Its melting temperature is 52 °C.

What about the “solubility in G1/S (log2)” value (HeLa Kyoto [3]) of the same sequence?
The value was 0.169.

And the thermal stability score (HeLa Kyoto [4]; [5])?
Its thermal stability score is -0.822.

And the thermal stability score (HeLa Kyoto [4]; cell cycle stage: mitosis)?
Its thermal stability score is 0.186.

With “MQNYKYDKAIVPESKNGGSPALNNNPRRSGSKRVLLICLDLFCLFMAGLPFLIIETSTIKPYHRGFYCNDESIKYPLKTGETINDAVLCAVGIVIAILAIITGEFYRIYYLKKSRSTIQNPYVAALYKQVGCFLFGCAISQSFTDIAKVSIGRLRPHFLSVCNPDFSQINCSEGYIQNYRCRGDDSKVQEARKSFFSGHASFSMYTMLYLVLYLQARFTWRGARLLRPLLQFTLIMMAFYTGLSRVSDHKHHPSDVLAGFAQGALVACCIVFFVSDLFKTKTTLSLPAPAIRKEILSPVDIIDRNNHHNMM [PLPP3]” as the sequence, how does the “solubility change mitosis (log2)” value (HeLa Kyoto [1]) read?
Its value is -0.139.

What about the melting temperature (HeLa Kyoto [2]; cell cycle stage: G1/S) of the same sequence?
The melting temperature was 57 °C.

And the melting temperature (HeLa Kyoto [2]; cell cycle stage: mitosis)?
Its melting temperature is 55.7 °C.

What about the “solubility in G1/S (log2)” value (HeLa Kyoto [3]) of the same sequence?
The value was -0.0783.

What about the thermal stability score (HeLa Kyoto [4]; [5]) of the same sequence?
Its thermal stability score is -1.69.

And the thermal stability score (HeLa Kyoto [4]; cell cycle stage: mitosis)?
Its thermal stability score is 5.11.

How did the “solubility change mitosis (log2)” value (HeLa Kyoto [1]) turn out when “MQRALPGARQHLGAILASASVVVKALCAAVLFLYLLSFAVDTGCLAVTPGYLFPPNFWIWTLATHGLMEQHVWDVAISLTTVVVAGRLLEPLWGALELLIFFSVVNVSVGLLGAFAYLLTYMASFNLVYLFTVRIHGALGFLGGVLVALKQTMGDCVVLRVPQVRVSVMPMLLLALLLLLRLATLLQSPALASYGFGLLSSWVYLRFYQRHSRGRGDMADHFAFATFFPEILQPVVGLLANLVHSLLVKVKICQKTVKRYDVGAPSSITISLPGTDPQDAERRRQLALKALNERLKRVEDQSIWPSMDDDEEESGAKVDSPLPSDKAPTPPGKGAAPESSLITFEAAPPTL [TMEM115]” was run?
The value was 0.0464.

And the melting temperature (HeLa Kyoto [2]; cell cycle stage: G1/S)?
The melting temperature was 55.8 °C.

And the “solubility in G1/S (log2)” value (HeLa Kyoto [3])?
Its value is -0.146.

What about the thermal stability score (HeLa Kyoto [4]; [5]) of the same sequence?
Its thermal stability score is -2.84.

What about the thermal stability score (HeLa Kyoto [4]; cell cycle stage: mitosis) of the same sequence?
The thermal stability score was -3.54.

Which results are given for “MQSTSNHLWLLSDILGQGATANVFRGRHKKTGDLFAIKVFNNISFLRPVDVQMREFEVLKKLNHKNIVKLFAIEEETTTRHKVLIMEFCPCGSLYTVLEEPSNAYGLPESEFLIVLRDVVGGMNHLRENGIVHRDIKPGNIMRVIGEDGQSVYKLTDFGAARELEDDEQFVSLYGTEEYLHPDMYERAVLRKDHQKKYGATVDLWSIGVTFYHAATGSLPFRPFEGPRRNKEVMYKIITGKPSGAISGVQKAENGPIDWSGDMPVSCSLSRGLQVLLTPVLANILEADQEKCWGFDQFFAETSDILHRMVIHVFSLQQMTAHKIYIHSYNTATIFHELVYKQTKIISSNQELIYEGRRLVLEPGRLAQHFPKTTEENPIFVVSREPLNTIGLIYEKISLPKVHPRYDLDGDASMAKAITGVVCYACRIASTLLLYQELMRKGIRWLIELIKDDYNETVHKKTEVVITLDFCIRNIEKTVKVYEKLMKINLEAAELGEISDIHTKLLRLSSSQGTIETSLQDIDSRLSPGGSLADAWAHQEGTHPKDRNVEKLQVLLNCMTEIYYQFKKDKAERRLAYNEEQIHKFDKQKLYYHATKAMTHFTDECVKKYEAFLNKSEEWIRKMLHLRKQLLSLTNQCFDIEEEVSKYQEYTNELQETLPQKMFTASSGIKHTMTPIYPSSNTLVEMTLGMKKLKEEMEGVVKELAENNHILERFGSLTMDGGLRNVDCL [TBK1]”?
solubility change mitosis (log2) (HeLa Kyoto [1]): -0.105; melting temperature (HeLa Kyoto [2]; cell cycle stage: G1/S): 48.6 °C; melting temperature (HeLa Kyoto [2]; cell cycle stage: mitosis): 48.6 °C; solubility in G1/S (log2) (HeLa Kyoto [3]): -0.00961; thermal stability score (HeLa Kyoto [4]; [5]): 0.969; thermal stability score (HeLa Kyoto [4]; cell cycle stage: mitosis): 1.43

With “MQWNVPRTVSRLARRTCLEPHNAGLFGHCQNVKGPLLLYNAESKVVLVQGPQKQWLHLSAAQCVAKERRPLDAHPPQPGVLRHKQGKQHVSFRRVFSSSATAQGTPEKKEEPDPLQDKSISLYQRFKKTFRQYGKVLIPVHLITSGVWFGTFYYAALKGVNVVPFLELIGLPDSVVSILKNSQSGNALTAYALFKIATPARYTVTLGGTSVTVKYLRSHGYMSTPPPVKEYLQDRMEETKELITEKMEETKDRLTEKLQETKEKVSFKKKVE [FAM210A]” as the sequence, how does the “solubility change mitosis (log2)” value (HeLa Kyoto [1]) read?
Its value is -0.102.

What about the melting temperature (HeLa Kyoto [2]; cell cycle stage: G1/S) of the same sequence?
Its melting temperature is 55.7 °C.

What about the melting temperature (HeLa Kyoto [2]; cell cycle stage: mitosis) of the same sequence?
The melting temperature was 54.9 °C.

What about the “solubility in G1/S (log2)” value (HeLa Kyoto [3]) of the same sequence?
The value was 0.234.

And the thermal stability score (HeLa Kyoto [4]; [5])?
The thermal stability score was -3.65.

What about the thermal stability score (HeLa Kyoto [4]; cell cycle stage: mitosis) of the same sequence?
The thermal stability score was -2.22.

Which “solubility change mitosis (log2)” value (HeLa Kyoto [1]) does the source give for “MRAVLAREMDGRRVLGRFWSGWRRGLGVRPVPEDAGFGTEARHQRQPRGSCQRSGPLGDQPFAGLLPKNLSREELVDALRAAVVDRKGPLVTLNKPQGLPVTGKPGELTLFSVLPELSQSLGLREQELQVVRASGKESSGLVLLSSCPQTASRLQKYFTHARRAQRPTATYCAVTDGIPAASEGKIQAALKLEHIDGVNLTVPVKAPSRKDILEGVKKTLSHFRVVATGSGCALVQLQPLTVFSSQLQVHMVLQLCPVLGDHMYSARVGTVLGQRFLLPAENNKPQRQVLDEALLRRLHLTPSQAAQLPLHLHLHRLLLPGTRARDTPVELLAPLPPYFSRTLQCLGLRLQ [RPUSD3]” here?
The value was 0.0294.

And the melting temperature (HeLa Kyoto [2]; cell cycle stage: G1/S)?
Its melting temperature is 50.1 °C.

And the melting temperature (HeLa Kyoto [2]; cell cycle stage: mitosis)?
The melting temperature was 51.2 °C.

And the “solubility in G1/S (log2)” value (HeLa Kyoto [3])?
The value was 0.193.

And the thermal stability score (HeLa Kyoto [4]; [5])?
The thermal stability score was -1.94.

What about the thermal stability score (HeLa Kyoto [4]; cell cycle stage: mitosis) of the same sequence?
The thermal stability score was 0.774.
